Results reported in US20190330323A1 (UCB, published 2019).
Positions count from the first letter of the chain named.

T1: mouse Gremlin (mouse, UniProt O70326 25-184)
T1 sequence (looked up): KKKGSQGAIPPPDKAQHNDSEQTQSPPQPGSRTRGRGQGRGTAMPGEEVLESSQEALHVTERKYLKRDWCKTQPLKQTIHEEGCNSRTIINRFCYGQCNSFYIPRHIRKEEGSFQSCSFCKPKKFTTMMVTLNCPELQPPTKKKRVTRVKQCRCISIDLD

T2: BMP4/7 heterodimer (human, UniProt P12644 293-408; P18075 293-431)
T2 sequence (looked up) 1: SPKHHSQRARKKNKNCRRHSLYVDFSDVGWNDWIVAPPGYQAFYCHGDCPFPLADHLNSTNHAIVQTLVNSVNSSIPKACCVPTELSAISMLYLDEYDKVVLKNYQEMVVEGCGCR
T2 sequence (looked up) 2: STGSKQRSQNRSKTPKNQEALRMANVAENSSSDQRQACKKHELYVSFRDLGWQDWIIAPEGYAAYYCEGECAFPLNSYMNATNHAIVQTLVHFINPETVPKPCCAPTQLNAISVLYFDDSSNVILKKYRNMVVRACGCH

B1: Ab7326 (as tested in the screening assays of Example 5) (antibody, V domains shown)
VH: QVQLVESGAEVKKPGATVKISCKVSGYTFTDYYMHWVQQAPGKGLEWMGLVDPEDGETIYAEKFQGRVTITADTSTDTAYMELSSLRSEDTAVYYCATDARGSGSYYPNHFDYWGQGTLVTVSS
VL: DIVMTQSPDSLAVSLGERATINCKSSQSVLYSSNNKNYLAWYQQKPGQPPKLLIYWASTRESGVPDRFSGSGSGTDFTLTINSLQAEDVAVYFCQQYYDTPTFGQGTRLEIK
B2: truncated human Gremlin-1 (E. coli, refolded, N-terminal 6His-TEV tag) (ligand)
chain: MGSSHHHHHHSSGENLYFQGSAMPGEEVLESSQEALHVTERKYLKRDWCKTQPLKQTIHEEGCNSRTIINRFCYGQCNSFYIPRHIRKEEGSFQSCSFCKPKKFTTMMVTLNCPELQPPTKKKRVTRVKQCRCISIDLD
B3: human Gremlin-1 (recombinant, full length) (ligand)
chain: T1 sequence (looked up) with P27Q, T33N

Key:
Assay in all cases: cell-based or functional assay
mouse Gremlin = target: T1, mouse Gremlin
[1] = target: B3
BMP4/7 heterodimer [2] = target: T2, BMP4/7 heterodimer
BMP4/7 heterodimer [3] = target: T2, BMP4/7 heterodimer; remark: listed apart in the source

Binder	IC50, restoration of BMP signalling, Hek-Id1 reporter gene assay (mouse Gremlin) [nM]	IC50, restoration of BMP signalling, Hek-Id1 reporter gene assay [1] [nM]	IC50 (read off the curve) [B] (BMP4/7 heterodimer [2]) [nM]	IC50, Geometric mean (nM), Hek-Id1 reporter gene assay, N = 2 (BMP4/7 heterodimer [3]) [nM]
B1	0.2	1.3		
B2			~3	1.7
B3				1.6
